Test [1] addresses AP-2 α-appendage appendage (UniProt P17426). The settings on record: cited from earlier work.
Test [2] deals with T1, GST-FCHO1 μHD K877E + R879A (human, UniProt O14526 609-889, K877E | R879A).
T1 construct: also called K877E + R879A mutant; source: GST-fusion protein immobilised on glutathione-Sepharose; not shown: GST, N-terminal, kept
T1 sequence (looked up): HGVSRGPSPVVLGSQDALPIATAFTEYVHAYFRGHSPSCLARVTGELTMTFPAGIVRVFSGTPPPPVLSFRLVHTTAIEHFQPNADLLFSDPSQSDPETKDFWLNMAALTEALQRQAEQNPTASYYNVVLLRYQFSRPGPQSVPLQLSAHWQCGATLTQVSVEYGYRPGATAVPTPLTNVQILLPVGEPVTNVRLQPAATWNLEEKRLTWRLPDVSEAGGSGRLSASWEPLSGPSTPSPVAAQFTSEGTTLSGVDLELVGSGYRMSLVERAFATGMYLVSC
The test is described as follows: pull-down; HeLa cell lysate with 250 μg (Figure 3F: the indicated amount) of GST or GST-μHD fusion proteins immobilised on glutathione-Sepharose; supernatant and pellet stained or immunoblotted; Figures 1G, 3E, 3F. The following applies: one partner purified. A general note: In western blotting, separated proteins are transferred to a membrane and probed.

A further test concerns the target T2, FCHO1 μHD R872A+S874G (Homo sapiens).
T2 chain: T1 sequence (looked up) with R264A, S266G, E269K, A271R
The test is described as follows: ITC. In general terms: ITC needs no label: the signal is the heat of the interaction.

A further test concerns the target T3, FCHO1 μHD S732D (Homo sapiens).
T3 chain: T1 sequence (looked up) with S124D, E269K, A271R
The test is described as follows: ITC.

For a further test, the target named is T4, FCHO1 μHD R872M (Homo sapiens).
T4 chain: T1 sequence (looked up) with R264M, E269K, A271R
The test is described as follows: ITC.

The target in test [3] is T5, Danio rerio (Dr) Fcho1 μHD (Danio rerio (zebrafish)).
T5 chain: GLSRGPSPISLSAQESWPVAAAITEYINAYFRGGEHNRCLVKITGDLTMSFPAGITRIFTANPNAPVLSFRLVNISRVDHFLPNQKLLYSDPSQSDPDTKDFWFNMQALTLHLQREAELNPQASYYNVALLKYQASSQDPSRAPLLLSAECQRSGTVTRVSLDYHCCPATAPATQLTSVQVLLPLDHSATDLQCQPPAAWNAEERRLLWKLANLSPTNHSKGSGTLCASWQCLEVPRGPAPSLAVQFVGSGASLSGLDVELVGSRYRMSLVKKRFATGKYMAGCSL
As to the kind of experiment: ITC.

The target of test [4] is T6, FCHO1 μHD A629E (for ITC) (human, UniProt O14526 609-889, A629E).
T6 sequence (looked up): T1 sequence (looked up) with A21E, E269K, A271R
As to the kind of experiment: ITC; repeated injection of EPS15 peptides into a temperature-controlled solution of μHD, Nano ITC instrument (TA Instruments); minimum of four runs. The settings on record: both partners purified.

Test [5] has as its target T7, FCHO1 μHD P627D + A629E (for ITC) (human, UniProt O14526 609-889, P627D | A629E).
T7 sequence (looked up): T1 sequence (looked up) with P19D, A21E, E269K, A271R
The test is described as above. The following applies: both partners purified.

Test [6] concerns the target T8, FCHO1 μHD K877E + R879A (for ITC) (human, UniProt O14526 609-889, K877E | R879A).
T8 sequence (looked up): T1 sequence (looked up)
Described as above. The following applies: both partners purified.

Test [7] has as its target T9, FCHO1 μHD (purified, not on beads) (human, UniProt O14526 609-889).
T9 construct: human FCHO1 μ-homology domain (μHD); also called purified FCHO1 μHD; Hs FCHO1 μHD; source: purified
T9 sequence (looked up): T1 sequence (looked up) with E269K, A271R
The description is as above. The following applies: both partners purified.

Test [8] deals with T9, FCHO1 μHD (purified, not on beads). The test is described as follows: pull-down; purified FCHO1 μHD with ~50 μg of GST or GST fusion protein in the presence of carrier BSA; stained or immunoblotted with an anti-FCHO1 monoclonal antibody; Figure 1D. The following applies: both partners purified.

This is an account of results in article PMC4921775, “Transient Fcho1/2⋅Eps15/R⋅AP-2 Nanoclusters Prime the AP-2 Clathrin Adaptor for Cargo Binding” (Developmental Cell, 2016).

Substitutions are numbered along the chain they refer to. No end group written: not given here.

Chain of AP-2 α-appendage appendage (P17426 740-977): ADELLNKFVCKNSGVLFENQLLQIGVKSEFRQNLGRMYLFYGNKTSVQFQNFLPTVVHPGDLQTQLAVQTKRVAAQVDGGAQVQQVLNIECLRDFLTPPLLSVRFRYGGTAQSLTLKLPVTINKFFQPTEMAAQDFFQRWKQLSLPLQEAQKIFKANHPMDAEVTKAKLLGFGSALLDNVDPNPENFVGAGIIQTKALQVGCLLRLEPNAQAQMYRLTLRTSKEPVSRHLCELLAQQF

For the molecule Eps15 DPF motif (from UniProt P42566), the Kd in [1] was 200 µM.

B1: EPS15 (epidermal growth factor pathway substrate 15) (natural protein, human (endogenous in HeLa), UniProt P42566 1-896, looked up)
chain: MAAAAQLSLTQLSSGNPVYEKYYRQVDTGNTGRVLASDAAAFLKKSGLPDLILGKIWDLADTDGKGILNKQEFFVALRLVACAQNGLEVSLSSLNLAVPPPRFHDTSSPLLISGTSAAELPWAVKPEDKAKYDAIFDSLSPVNGFLSGDKVKPVLLNSKLPVDILGRVWELSDIDHDGMLDRDEFAVAMFLVYCALEKEPVPMSLPPALVPPSKRKTWVVSPAEKAKYDEIFLKTDKDMDGFVSGLEVREIFLKTGLPSTLLAHIWSLCDTKDCGKLSKDQFALAFHLISQKLIKGIDPPHVLTPEMIPPSDRASLQKNIIGSSPVADFSAIKELDTLNNEIVDLQREKNNVEQDLKEKEDTIKQRTSEVQDLQDEVQRENTNLQKLQAQKQQVQELLDELDEQKAQLEEQLKEVRKKCAEEAQLISSLKAELTSQESQISTYEEELAKAREELSRLQQETAELEESVESGKAQLEPLQQHLQDSQQEISSMQMKLMEMKDLENHNSQLNWCSSPHSILVNGATDYCSLSTSSSETANLNEHVEGQSNLESEPIHQESPARSSPELLPSGVTDENEVTTAVTEKVCSELDNNRHSKEEDPFNVDSSSLTGPVADTNLDFFQSDPFVGSDPFKDDPFGKIDPFGGDPFKGSDPFASDCFFRQSTDPFATSSTDPFSAANNSSITSVETLKHNDPFAPGGTVVAASDSATDPFASVFGNESFGGGFADFSTLSKVNNEDPFRSATSSSVSNVVITKNVFEETSVKSEDEPPALPPKIGTPTRPCPLPPGKRSINKLDSPDPFKLNDPFQPFPGNDSPKEKDPEIFCDPFTSATTTTNKEADPSNFANFSAYPSEEDMIEWAKRESEREEEQRLARLNQQEQEDLELAIALSKSEISEA
notes: human EPS15, endogenous protein; also called native EPS15 dimer/tetramer
For the molecule B1, the “fold reduction of recovery against the wild-type μHD” value in [2] is not below 25 fold.

In the test with FCHO1 μHD R872A+S874G, NLDFFQSDPFVGSDPFKDDPFGK [EPS15 616–638 peptide, listing 1 of 2 here] came in with a Kd of 77.4 µM.

NLDFFQSDPFVGSDPFKDDPFGK [EPS15 616–638 peptide, listing 2 of 2 here]: the values for the Kd (with FCHO1 μHD S732D; with FCHO1 μHD R872M; in test [3]) were 9.1 µM, 19.6 µM and 8.1 µM, respectively.

With NLDFFQSDPFVGSDPFKDDPFGK (peptide, UniProt P42566 616-638, looked up), the Kd in test [4] is more than 300 µM; in [5] it was more than 300 µM; in [6] it was more than 300 µM; in [7], 2.7 µM.

B2: GST-EPS15 (615–636) (peptide)
chain: {GST}-TNLDFFQSDPFVGSDPFKDDPF
notes: source: GST-fusion protein immobilised on glutathione-Sepharose; not shown: GST, N-terminal, kept
Regarding B2, the binding result in test [8] is reported as “binds”.

As usually defined, the Kd is a measure of binding affinity in units of concentration.
